According to patent US11938104B1, “Compositions and methods for prevention and treatment of coronavirus and related disorders” (Abrexa Pharmaceuticals, Inc., priority 2021, dated 2024):

System: Male SD rats
Experiment: Thromboembolic MCAO, J147+tPA expanded study, 72 h (Example 4)
Assay type: in vivo, rat
Experimental: Objective: To determine whether J147 can prevent tPA-associated brain hemorrhage and extend the treatment time window of tPA in a clinically relevant thromboembolic stroke model in rats. • J147 compound: Stock solution: 60 mg/ml DMSO, in 60 ul/vial, stored at −20° C. • Working solution: 3 mg/ml in 5% DMSO, 70% PEG200 and 25% normal saline, prepared prior to injection. • One vial stock solution was warmed at 37° C. and mixed with 1140 ul sterilized solution (PEG200: saline, 2.8:1). • Recombinant human tPA (Alteplase, 2.2 mg/vial): Reconstituted with 1.1 ml water (2 mg/ml). 10 mg/kg, 10% bonus injection, 90% 30 min. via mini pump.
Methods: Male SD rats (280-300 g) were subjected to thromboembolic middle cerebral artery occlusion (MCAO) and treated with saline at 4 hours, tPA (tissue-type plasminogen activator; 10 mg/kg, IV) at 4 hours, and combined J147 (10 mg/kg, IV) plus tPA at 4 hours after onset of ischemia. Bederson score was examined prior to the sacrifice at 72 h after stroke. Infarct volumes, brain hemorrhage, and animal mortality were measured.
Conclusion: J147 plus tPA combination treatment attenuates tPA-associated hemorrhage and alleviates brain damage after eMCAO. Consequently, the use of J147 in combination with tPA may extend the length of the therapeutic window for administration of tPA following an ischemic event and thereby increase the number of stroke patients that could benefit from use of tPA. • J147 compound: Stock solution: 60 mg/ml DMSO, in 60 ul/vial, stored at −20° C. • Working solution: 3 mg/ml in 5% DMSO, 70% PEG200 and 25% normal saline, prepared prior to injection. One vial stock solution was warmed at 37° C. and mixed with 1140 ul sterilized solution (PEG200: saline, 2.8:1). • Recombinant human tPA (Alteplase, 2.2 mg/vial): Reconstituted with 1.1 ml water (2 mg/ml). 10 mg/kg, 10% bonus injection, 90% 30 min. via mini pump.

[1] = tPA 10 mg/kg IV, J147 10 mg/kg IV, at 4 hours after onset of ischemia, 72 h after stroke

B1: tPA: Recombinant human tPA (Alteplase); tissue plasminogen activator, thrombolytic approved by the FDA for the treatment of stroke (protein, UniProt P00750 36-562, looked up)
Tissue-type plasminogen …: SYQVICRDEKTQMIYQQHQSWLRPVLRSNRVEYCWCNSGRAQCHSVPVKSCSEPRCFNGGTCQQALYFSDFVCQCPEGFAGKCCEIDTRATCYEDQGISYRGTWSTAESGAECTNWNSSALAQKPYSGRRPDAIRLGLGNHNYCRNPDRDSKPWCYVFKAGKYSSEFCSTPACSEGNSDCYFGNGSAYRGTHSLTESGASCLPWNSMILIGKVYTAQNPSAQALGLGKHNYCRNPDGDAKPWCHVLKNRRLTWEYCDVPSCSTCGLRQYSQPQFRIKGGLFADIASHPWQAAIFAKHRRSPGERFLCGGILISSCWILSAAHCFQERFPPHHLTVILGRTYRVVPGEEEQKFEVEKYIVHKEFDDDTYDNDIALLQLKSDSSRCAQESSVVRTVCLPPADLQLPDWTECELSGYGKHEALSPFYSERLKEAHVRLYPSSRCTSQHLLNRTVTDNMLCAGDTRSGGPQANLHDACQGDSGGPLVCLNDGRMTLVGIISWGLGCGQKDVPGVYTKVTNYLDWIRDNMRP
brain hemorrhage / hemorrhagic transformation [1]: worsened | brain infarction / infarct volume [1]: did not decrease | mortality rate (treatment at 4 h after onset of ischemia, log-rank test *p < 0.05 vs Saline or tPA alone group): 32% | Death (number of rats) (treatment at 4 h after onset of ischemia, tPA n = 22, J147 plus tPA n = 17): 7
